The text below walks through data of the supplement of paper PMC9170038.

The test system of this data set is MS2 coat protein. Briefly: apparent KD of MS2 coat protein; designed switch direction (-1 OFF switch, 1 ON switch): -1; higher = weaker reporter binding. The essentials:
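An oligonucleotide input, 200 uM small-molecule ligand, or no input was present during titration of SNAP-549-labelled MS2 coat protein, which was doubled from 0.7 or 1.5 nM to 3 µM. Designed RNA switches had been transcribed on Illumina chips by stalled E. coli RNA polymerase. Apparent KD per design is the median over clusters of curves fitted to normalised cluster fluorescence.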

[1] abbreviates: input ligand: microRNA oligo, concentration not stated.
[2] abbreviates: Eterna round: R95, input ligand: FMN 200 uM.
The mark [3] stands for this setting: Eterna round: R95, input ligand: microRNA oligo, concentration not stated.
Setting [4] is: Eterna round: R95, input ligand: none.

As to “GGUACUCAAAGAGUACCAAUACGAACAUGAGGAUCACCCAUGUAGGAUAUGCUACUCAAAGAGUAGCAGAAGGACAUGAACCCU [Far Half Aptamer v7] (Eterna round: R96, puzzle: Exclusion NG 3)”, the “apparent KD of MS2 coat protein” value is, setting by setting: (input ligand: FMN 200 uM) 571 nM; under setting [1], 38.3 nM; (input ligand: none) 61.8 nM.
Consider “AUUAGAUGAGGAUAUACAUGGUUGCGGGUGCGGCAGGAUCUACAUGAGGAUCACCCAUGUAGAAGGCAUGUAUC [EX2 C.22] (Eterna round: R97, puzzle: Exclusion 2)”, for which the “apparent KD of MS2 coat protein” value is 16.3 nM (input ligand: FMN 200 uM) and 13.8 nM (input ligand: none).
“UGGUAACAUGAGGAUCACCCAUGUCAGGAUAUCAGUAAGAAUAGAUUAGAUUAGAAGAUGAGAAGGGACUAUAU [Excluse me! 5 - Jieux - Exclusion 1] (puzzle: Exclusion 1)”: the “apparent KD of MS2 coat protein” value is, setting by setting: under setting [2], 27.6 nM; under setting [3], 32 nM; under setting [4], 36.7 nM.
In the case of “GGAAUGUAAGGAUAUGCGAAAAGAAGCCGAAGGGAGUCGAAGCAGAAGGUACAUGAGGAUCACCCAUGUAAGGG [AK-MS2ROC-r4-exclusion4-12.1] (Eterna round: R97, puzzle: Exclusion 4)”, the “apparent KD of MS2 coat protein” value was found to be 159 nM (input ligand: FMN 200 uM) and 700 nM (input ligand: none).
“CUUUACAUAGGAUAUAGUUGCUUUUACAUGAGGAUCACCCAUGUCUCUCCUCUCUCUCUUCUAGAAGGAUGUUUCU [JR_E5_Sub010] (puzzle: Exclusion 5)”: under setting [3], the “apparent KD of MS2 coat protein” value was 56 nM.
Turning to “UUUUAGAGAGGAUAUAUUAUGUGAAACAUGAGGAUCACCCAUGUAAUAUGAUGGAUGUAAAUAGAAGGCUCAUUUA [JL-ex5-3.06] (puzzle: Exclusion 5)”, the “apparent KD of MS2 coat protein” value reads like this: under setting [2], 34.6 nM; under setting [3], 48.3 nM; under setting [4], 58 nM.
Turning to “AAAUUUGGAGGAUAUCCAUUGGGAAACAUGAGGAUCACCCAUGUAAUAAAAGGGAAAUCCGGAGAAGGCCAAAUUU [-20.39, -19.1 kcal, 39% A] (Eterna round: R97, puzzle: Exclusion 5)”, the “apparent KD of MS2 coat protein” value is, setting by setting: (input ligand: FMN 200 uM) 45.7 nM; (input ligand: none) 19.1 nM.
The matching figures for “UAUAAACAUGAGGAUCACCCAUGUGAGGAUAUCUAAACCAGAGCGGAUCUCUGGACCAAGAGAAGGUGCAUGGU [ElNandoxlusion 10 - Jieux - Exclusion 1] (Eterna round: R97, puzzle: Exclusion 1)”: 66.9 nM and 31.7 nM.
In the case of “CGGCGGGCAGGAUAUGGUAAUAAUUACAUGAGGAUCACCCAUGUAGAUAUAUGGGAAUAACCAGAAGGGCUUGUUG [-20.5, -20.3 kcal, A 32%] (Eterna round: R97, puzzle: Exclusion 5)”, the “apparent KD of MS2 coat protein” value was found to be 19.7 nM (input ligand: FMN 200 uM) and 28.7 nM (input ligand: none).
Take “AGAUGCUCGAGUCAACAUGAGGAUCACCCAUGUACAGUUAAUGAGGAUAUCUGAGACAAAUAGUAGGAGAAGGCGUGAACAUGA [Ex NG3 #12] (Eterna round: R96, puzzle: Exclusion NG 3)”: the “apparent KD of MS2 coat protein” value reads like this: (input ligand: FMN 200 uM) 32.1 nM; under setting [1], 69 nM; (input ligand: none) 39.6 nM.
For the sequence “GAGUACAGAGGAUAUACAUGAGGAUCACCCAUGUGUUUCAGCUAGGAGACUAGCGAAAGUAGAAGGCUGUACUU [salish99_ex3_r4_005] (Eterna round: R97, puzzle: Exclusion 3)”, the “apparent KD of MS2 coat protein” value (input ligand: FMN 200 uM) was determined as 25.7 nM and the “apparent KD of MS2 coat protein” value (input ligand: none) was 8.49 nM.
Consider “AGCUAGUCAGGAUAUUCUAAUAAUUACAUGAGGAUCACCCAUGUGAAUAGACAAGGGUGUGAAGAAGGGACUAGCG [Omei Ex5 A5] (Eterna round: R97, puzzle: Exclusion 5)”, for which the “apparent KD of MS2 coat protein” value (input ligand: FMN 200 uM) is 58.3 nM and the “apparent KD of MS2 coat protein” value (input ligand: none) was found to be 366 nM.
For the sequence “AGUACUAACACGUUUGUGUUAGUACAAUAAGCUUGUGAAACAUGAGGAUCACCCAUGUCCUCAUAAGCUCGUCUUAU [salish99_TOv2_r3_069] (puzzle: Sensor v3, turn-off variant 2)”, the “apparent KD of MS2 coat protein” value under setting [2] was 17.4 nM, the “apparent KD of MS2 coat protein” value under setting [3] is 567 nM and the “apparent KD of MS2 coat protein” value under setting [4] worked out at 16.3 nM.
For the sequence “CAAGCUUUGCGAGGAUAUGAUGGCCGAUAUGCCUCAGAAGGCGCAGAAACUUGAGGAUCACCCAAGUGAUGCAACGACGACCAU [Mutated MS2 EX1.12] (Eterna round: R96, puzzle: Exclusion NG 1)”, the “apparent KD of MS2 coat protein” value worked out at 27.1 nM (input ligand: FMN 200 uM), 10.7 nM under setting [1] and 15.7 nM (input ligand: none).
Regarding “ACACUGCUAGGAUAUGCAGCGGCAUCAGCCGAAAGUCCCUCACAUGAGGAUCACCCAUGUAGAAGGAGCAAGAC [Eternabot (Original) Solution 13] (Eterna round: R97, puzzle: Exclusion 2)”, the “apparent KD of MS2 coat protein” value runs as follows: (input ligand: FMN 200 uM) 26.9 nM; (input ligand: none) 26.6 nM.
In the case of “UGAUCUAGCGGAGGAUAUACAUGAGGAUCACCCAUGUAGUAGUGAGUUGCGUACAGCUCACUUGUGUAGAAGGCCGCUAGAUCU [JL ENG2 3.59] (Eterna round: R96, puzzle: Exclusion NG 2)”, the “apparent KD of MS2 coat protein” value by setting is: (input ligand: FMN 200 uM) 16.5 nM; under setting [1], 10.1 nM; (input ligand: none) 12.7 nM.
“AUAUUACAUGAGGAUCACCCAUGUGAGGAUAUGGAGAGCGACCGCCCGGUCGCGUACACCAGAAGGCGCAGGCG [1st #59] (Eterna round: R97, puzzle: Exclusion 1)”: the “apparent KD of MS2 coat protein” value (input ligand: FMN 200 uM) came out at 85.7 nM and the “apparent KD of MS2 coat protein” value (input ligand: none) is 41.1 nM.
As to “ACAUGAGGAUCACCCAUGUACAGGGUUUAGUUUCAUUGUUUGAAGGAUAUACUUAGUUAGUUGUUGUAGAAGGUCAUAUUUUAU [JR_ExcNG3_Sub002] (Eterna round: R96, puzzle: Exclusion NG 3)”, the “apparent KD of MS2 coat protein” value under setting [1] was 156 nM.
Same read-out and setting: as for “UAUAUAUAGUAAGGAUAUAUAUUUUUUUUUUAAAUAGAAGGUACAGACAUGAGGAUCACCCAUGUUAUAAUAUGGACAUGUGGA [JMF's Solution 3] (Eterna round: R96, puzzle: Exclusion NG 1)”, the figure is 113 nM.
Consider “UUUUUAUAUGAAGGAUAUACUUAACAUGAGGAUCACCCAUGUGGUGUUGUGAGUGAGUGAGUUUAGUAGAAGGUCAAUUCUUUA [JMF's solution 83] (Eterna round: R96, puzzle: Exclusion NG 2)”, for which the “apparent KD of MS2 coat protein” value runs as follows: (input ligand: FMN 200 uM) 866 nM; under setting [1], 443 nM; (input ligand: none) 463 nM.
Take “UACAAGCUUUAAAGAUCCUACAUGAGGAUCACCCAUGUGCUCGUCUUAUAACGUACUGUGACGAAAGUCACGGUACG [JL TOV1 3.20] (Eterna round: R97, puzzle: Sensor, turn-off variant 1)”: the “apparent KD of MS2 coat protein” value by setting is: (input ligand: FMN 200 uM) 200 nM; (input ligand: none) 246 nM.
In the case of “ACCCAACAUGAGGAUCACCCAUGUCAGGAUAUCCAAGCGAAAGCAAAAGCGAAAGCAAGGAGAAGGGACAGAGG [ChP 04-04-2015 #6] (puzzle: Exclusion 1)”, the “apparent KD of MS2 coat protein” value under setting [2] was determined as 308 nM, the “apparent KD of MS2 coat protein” value under setting [3] stood at 90 nM and the “apparent KD of MS2 coat protein” value under setting [4] is 180 nM.
Consider “CGUUCUCACGUCAGGAUAUAGGACUUGCACGUGUGCUAGAAGGGACAUGAGGAUCACCCAUGUAAAUAAGAAAG [Quonbi] (Eterna round: R97, puzzle: Brourd's mod of Exclusion 4)”, for which the “apparent KD of MS2 coat protein” value came out at 37.5 nM (input ligand: FMN 200 uM) and 27.1 nM (input ligand: none).
In the case of “GCCAGAGCAGGAUAUUCAAUAUUCCACAUGAGGAUCACCCAUGUCCAGCGAAAGCUGGAGGGAGAAGGGCUCUGGC [Fiskers Ex 5 - 8] (puzzle: Exclusion 5)”, the “apparent KD of MS2 coat protein” value under setting [2] came to 27.3 nM, the “apparent KD of MS2 coat protein” value under setting [3] came out at 43.6 nM and the “apparent KD of MS2 coat protein” value under setting [4] stood at 56.3 nM.
With “AGUACUAACACGAAAGUGUUAGUAAAAUAAGCUUGUGGUACAUGAGGAUCACCCAUGUCCUCAUAAGCUCGUCUUAU [Mat - Sensor v3 - Turn-off var 2 - D42] (puzzle: Sensor v3, turn-off variant 2)”, the “apparent KD of MS2 coat protein” value by setting is: under setting [2], 21.6 nM; under setting [3], 78.8 nM; under setting [4], 20.6 nM.
As for “GGUCAGAUGGUAGGAUAUCCAUAUCGAGUGACCCUUUCAUAACAUGAGGAUCACCCAUGUCGGUGGGAGAAGGGUCGUACGGCG [salish99_ExNG02_R04_020] (Eterna round: R96, puzzle: Exclusion NG 2)”, the “apparent KD of MS2 coat protein” value stood at 21.3 nM (input ligand: FMN 200 uM), 16.4 nM under setting [1] and 23.6 nM (input ligand: none).
In the case of “GCUGGACGAGGAUAUAUAUGACGUGCUUCGGCACGAAGAUCACAUGAGGAUCACCCAUGUAGAAGGUGUCCAGC [E2/8-B2] (Eterna round: R97, puzzle: Exclusion 2)”, the “apparent KD of MS2 coat protein” value is 278 nM (input ligand: FMN 200 uM) and 54.1 nM (input ligand: none).
With “AGUACUAACACGAAAGUGUUAGUACAAUAAGCUUGUGAAACAUGAGGAUCACCCAUGUCCUCAUUAGCUCGUCUUAU [salish99_TOv2_r3_050] (puzzle: Sensor v3, turn-off variant 2)”, the “apparent KD of MS2 coat protein” value is, setting by setting: under setting [2], 184 nM; under setting [3], 451 nM; under setting [4], 172 nM.
Regarding “GUAAUUAUAUAGGAUAUCGAAUUUAUUAUUUAACGAGAAGGAUGAACAUGAGGAUCACCCAUGUGGUAUCAUGG [JL-ex6-3.04] (puzzle: Exclusion 6)”, the “apparent KD of MS2 coat protein” value amounted to 145 nM under setting [2], 139 nM under setting [3] and 165 nM under setting [4].
As for “GCAGCAUAGAUAACAUACUGUUACAUGAGGAUCACCCAUGUACAGGAUAUGGUCUGGAUUACAGGCCAGAAGGGUACAAGCUGC [Eli exng3 - 021] (Eterna round: R96, puzzle: Exclusion NG 3)”, the “apparent KD of MS2 coat protein” value reads like this: (input ligand: FMN 200 uM) 10.8 nM; under setting [1], 8.63 nM; (input ligand: none) 12.1 nM.
